Experimental data reported in US20110118131A1 (published 2011).
Substitutions are numbered along the chain they refer to. Numbers in names are those of the source.

B1: XPA23 light chain D92W (Fab, V domains shown)
VH: EVQLLESGGGLVQPGGSLRLSCAASGFTFSKYFMFWVRQAPGKGLEWVSVISPSGGMTRYADSVKGRFTISRDNSKNTLYLQMNSLRAEDTAVYYCARVGYGGNSDYWGQGTLVTVSS
VL: DIQMTQSPSSVSASVGDRLTIICRASQDINRWLAWYQQTPGNAPKLLIHSATSLQSGVPSRFSGSGSGTDFTLTINSLQPEDFATYYCQQAWSFPLTFGGGTKVEIK
B2: XPA23 light chain D92Y (Fab, V domains shown)
VH: B1 VH
VL: B1 VL with W92Y
B3: XPA23 light chain F94D (Fab, V domains shown)
VH: B1 VH
VL: B1 VL with W92D, F94D
B4: XPA23 light chain F94E (Fab, V domains shown)
VH: B1 VH
VL: B1 VL with W92D, F94E
B5: XPA23 light chain F94H (Fab, V domains shown)
VH: B1 VH
VL: B1 VL with W92D, F94H
B6: XPA23 light chain F94K (Fab, V domains shown)
VH: B1 VH
VL: B1 VL with W92D, F94K
B7: XPA23 light chain F94N (Fab, V domains shown)
VH: B1 VH
VL: B1 VL with W92D, F94N
B8: XPA23 light chain F94Q (Fab, V domains shown)
VH: B1 VH
VL: B1 VL with W92D, F94Q
B9: XPA23 light chain F94R (Fab, V domains shown)
VH: B1 VH
VL: B1 VL with W92D, F94R
B10: XPA23 light chain F94S (Fab, V domains shown)
VH: B1 VH
VL: B1 VL with W92D, F94S
B11: XPA23 light chain F94W (Fab, V domains shown)
VH: B1 VH
VL: B1 VL with W92D, F94W
B12: XPA23 light chain F94Y (Fab, V domains shown)
VH: B1 VH
VL: B1 VL with W92D, F94Y
B13: XPA23 light chain H49A (Fab, V domains shown)
VH: B1 VH
VL: B1 VL with H49A, W92D
B14: XPA23 light chain H49D (Fab, V domains shown)
VH: B1 VH
VL: B1 VL with H49D, W92D
B15: XPA23 light chain H49E (Fab, V domains shown)
VH: B1 VH
VL: B1 VL with H49E, W92D
B16: XPA23 light chain H49F (Fab, V domains shown)
VH: B1 VH
VL: B1 VL with H49F, W92D
B17: XPA23 light chain H49G (Fab, V domains shown)
VH: B1 VH
VL: B1 VL with H49G, W92D
B18: XPA23 light chain H49I (Fab, V domains shown)
VH: B1 VH
VL: B1 VL with H49I, W92D
B19: XPA23 light chain H49K (Fab, V domains shown)
VH: B1 VH
VL: B1 VL with H49K, W92D
B20: XPA23 light chain H49L (Fab, V domains shown)
VH: B1 VH
VL: B1 VL with H49L, W92D
B21: XPA23 light chain H49N (Fab, V domains shown)
VH: B1 VH
VL: B1 VL with H49N, W92D
B22: XPA23 light chain H49P (Fab, V domains shown)
VH: B1 VH
VL: B1 VL with H49P, W92D
B23: XPA23 light chain H49Q (Fab, V domains shown)
VH: B1 VH
VL: B1 VL with H49Q, W92D
B24: XPA23 light chain H49R (Fab, V domains shown)
VH: B1 VH
VL: B1 VL with H49R, W92D
B25: XPA23 light chain H49S (Fab, V domains shown)
VH: B1 VH
VL: B1 VL with H49S, W92D
B26: XPA23 light chain H49T (Fab, V domains shown)
VH: B1 VH
VL: B1 VL with H49T, W92D
B27: XPA23 light chain H49V (Fab, V domains shown)
VH: B1 VH
VL: B1 VL with H49V, W92D
B28: XPA23 light chain H49W (Fab, V domains shown)
VH: B1 VH
VL: B1 VL with H49W, W92D
B29: XPA23 light chain H49Y (Fab, V domains shown)
VH: B1 VH
VL: B1 VL with H49Y, W92D
B30: XPA23 light chain L96D (Fab, V domains shown)
VH: B1 VH
VL: B1 VL with W92D, L96D
B31: XPA23 light chain L96E (Fab, V domains shown)
VH: B1 VH
VL: B1 VL with W92D, L96E
B32: XPA23 light chain L96F (Fab, V domains shown)
VH: B1 VH
VL: B1 VL with W92D, L96F
B33: XPA23 light chain L96H (Fab, V domains shown)
VH: B1 VH
VL: B1 VL with W92D, L96H
B34: XPA23 light chain L96K (Fab, V domains shown)
VH: B1 VH
VL: B1 VL with W92D, L96K
B35: XPA23 light chain L96N (Fab, V domains shown)
VH: B1 VH
VL: B1 VL with W92D, L96N
B36: XPA23 light chain L96Q (Fab, V domains shown)
VH: B1 VH
VL: B1 VL with W92D, L96Q
B37: XPA23 light chain L96R (Fab, V domains shown)
VH: B1 VH
VL: B1 VL with W92D, L96R
B38: XPA23 light chain L96S (Fab, V domains shown)
VH: B1 VH
VL: B1 VL with W92D, L96S
B39: XPA23 light chain L96W (Fab, V domains shown)
VH: B1 VH
VL: B1 VL with W92D, L96W
B40: XPA23 light chain L96Y (Fab, V domains shown)
VH: B1 VH
VL: B1 VL with W92D, L96Y
B41: XPA23 light chain N30A (Fab, V domains shown)
VH: B1 VH
VL: B1 VL with N30A, W92D
B42: XPA23 light chain N30D (Fab, V domains shown)
VH: B1 VH
VL: B1 VL with N30D, W92D
B43: XPA23 light chain N30E (Fab, V domains shown)
VH: B1 VH
VL: B1 VL with N30E, W92D
B44: XPA23 light chain N30F (Fab, V domains shown)
VH: B1 VH
VL: B1 VL with N30F, W92D
B45: XPA23 light chain N30G (Fab, V domains shown)
VH: B1 VH
VL: B1 VL with N30G, W92D
B46: XPA23 light chain N30H (Fab, V domains shown)
VH: B1 VH
VL: B1 VL with N30H, W92D

Target: T1, IL-1β (UniProt P01584 117-269)
T1 construct: Antigen immobilised on the Biacore chip
Assay: Biacore, periplasmic extract

| Binder | fold difference in affinity vs original | binding result |
| --- | --- | --- |
| B1 | 0.12 fold |  |
| B2 |  | no binding |
| B3 |  | no binding |
| B4 |  | no binding |
| B5 |  | no binding |
| B6 |  | no binding |
| B7 |  | no binding |
| B8 |  | no binding |
| B9 |  | no binding |
| B10 |  | no binding |
| B11 |  | no binding |
| B12 |  | no binding |
| B13 | 0.23 fold |  |
| B14 | 0.11 fold |  |
| B15 |  | no binding |
| B16 | 0.5 fold |  |
| B17 |  | no binding |
| B18 |  | no binding |
| B19 | 0.1 fold |  |
| B20 | 0.07 fold |  |
| B21 | 0.31 fold |  |
| B22 | 0.86 fold |  |
| B23 |  | no binding |

| Binder | fold difference in affinity vs original | binding result |
| --- | --- | --- |
| B24 | 0.21 fold |  |
| B25 | 0.14 fold |  |
| B26 |  | no binding |
| B27 |  | no binding |
| B28 | 0.21 fold |  |
| B29 | 0.52 fold |  |
| B30 |  | no binding |
| B31 |  | no binding |
| B32 | 0.28 fold |  |
| B33 | 0.07 fold |  |
| B34 |  | no binding |
| B35 | 0.06 fold |  |
| B36 | 0.21 fold |  |
| B37 |  | no binding |
| B38 | 0.23 fold |  |
| B39 | 4.49 fold |  |
| B40 |  | no binding |
| B41 | 0.61 fold |  |
| B42 | 0.81 fold |  |
| B43 | 0.64 fold |  |
| B44 | 1.59 fold |  |
| B45 | 0.71 fold |  |
| B46 | 1 fold |  |
